The labels stand for the following.
B1: flag-tagged WARS2(L53F) mutant (human) (enzyme)
chain: LHKGSAAAPALQKDSKKRVFSGIQPTGILHLGNYFGAIESWVRLQDEYDSVLYSIVDLHSITVPQDPAVLRQSILDMTAVLLACGINPEKSILFQQSQVSEHTQLSWILSCMVRLPRLQHLHQWKAKTTKQKHDGTVGLLTYPVLQAADILLYKSTHVPVGEDQVQHMELVQDLAQGFNKKYGEFFPVPESILTSMKKVKSLRDPSAKMSKSDPDKLATVRITDSPEEIVQKFRKAVTDFTSEVTYDPAGRAGVSNIVAVHAAVTGLSVEEVVRRSAGMNTARYKLAVADAVIEKFAPIKREIEKLKLDKDHLEKVLQIGSAKAKELAYTVCQEVKKLVGFL
notes: also called mutant WARS2; not shown: C-terminal myc-DDK (flag) tag of the Origene construct

Common to all, as to assay: co-IP of flag-tagged protein from HUVEC cells, blot
The target in test [1] is T1, glutamyl-prolyl tRNA synthetase (EPRS) (human, UniProt P07814 1-1512).
T1 construct: GAIT complex component; endogenous protein of HUVEC cells
T1 sequence (P07814 whole entry): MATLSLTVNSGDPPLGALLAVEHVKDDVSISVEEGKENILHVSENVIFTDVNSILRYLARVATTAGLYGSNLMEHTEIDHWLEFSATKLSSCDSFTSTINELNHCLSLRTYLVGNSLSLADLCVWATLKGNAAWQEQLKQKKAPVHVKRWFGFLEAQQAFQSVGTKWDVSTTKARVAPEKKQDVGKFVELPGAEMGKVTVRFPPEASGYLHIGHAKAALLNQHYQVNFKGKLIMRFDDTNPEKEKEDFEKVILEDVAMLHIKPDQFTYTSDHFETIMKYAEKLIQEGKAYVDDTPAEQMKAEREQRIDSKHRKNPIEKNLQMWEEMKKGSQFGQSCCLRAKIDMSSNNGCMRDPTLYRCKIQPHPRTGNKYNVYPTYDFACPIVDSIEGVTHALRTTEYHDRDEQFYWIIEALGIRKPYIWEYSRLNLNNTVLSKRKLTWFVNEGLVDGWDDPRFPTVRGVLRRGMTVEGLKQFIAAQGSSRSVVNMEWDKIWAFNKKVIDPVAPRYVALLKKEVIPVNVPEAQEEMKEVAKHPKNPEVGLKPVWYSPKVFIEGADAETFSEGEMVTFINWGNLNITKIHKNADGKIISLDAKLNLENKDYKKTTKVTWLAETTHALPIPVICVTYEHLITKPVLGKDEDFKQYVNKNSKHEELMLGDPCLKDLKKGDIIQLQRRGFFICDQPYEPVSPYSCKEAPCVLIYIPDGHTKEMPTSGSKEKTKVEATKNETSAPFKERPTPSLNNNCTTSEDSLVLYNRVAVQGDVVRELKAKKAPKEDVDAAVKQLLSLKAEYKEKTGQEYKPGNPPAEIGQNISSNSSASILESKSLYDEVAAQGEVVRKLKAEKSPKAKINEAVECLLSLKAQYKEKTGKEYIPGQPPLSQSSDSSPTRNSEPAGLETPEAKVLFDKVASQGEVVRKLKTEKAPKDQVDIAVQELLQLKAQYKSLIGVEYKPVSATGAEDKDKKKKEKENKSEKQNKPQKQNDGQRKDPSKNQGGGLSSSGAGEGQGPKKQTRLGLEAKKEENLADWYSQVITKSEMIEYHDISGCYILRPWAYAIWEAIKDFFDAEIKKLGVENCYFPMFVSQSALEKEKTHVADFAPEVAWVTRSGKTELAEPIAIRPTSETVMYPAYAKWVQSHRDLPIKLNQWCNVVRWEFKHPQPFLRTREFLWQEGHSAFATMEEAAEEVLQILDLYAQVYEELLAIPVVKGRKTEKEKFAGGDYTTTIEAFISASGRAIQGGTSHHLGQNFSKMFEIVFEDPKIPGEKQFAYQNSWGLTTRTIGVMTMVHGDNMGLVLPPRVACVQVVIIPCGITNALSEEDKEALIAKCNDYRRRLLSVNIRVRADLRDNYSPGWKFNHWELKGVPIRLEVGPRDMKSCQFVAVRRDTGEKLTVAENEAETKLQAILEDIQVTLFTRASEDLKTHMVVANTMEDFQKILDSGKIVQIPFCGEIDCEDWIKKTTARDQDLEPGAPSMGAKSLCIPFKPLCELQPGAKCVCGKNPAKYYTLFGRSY

The target of test [2] is Ribosomal Protein L 13a (RPL13a) (human, UniProt P40429 2-203).
Test [3] concerns the target B1.

With B1, the binding result in test [1] and in test [2] was “no binding” throughout.

B2: glyceraldehyde-3-phosphate dehydrogenase (GAPDH) (enzyme)
chain: not shown
notes: GAIT complex component; endogenous protein of HUVEC cells
For the molecule B2, the binding result in test [3] is recorded as “no binding”.

These data come from US20170022503A1 (NATIONAL UNIVERSITY OF SINGAPORE, published 2017).
